The source of these data is patent US20220177604A1.

Sequences and labels used below:
B1: CL-2C mAb 1 (antibody, V domains shown)
VH: QVQLVQSGAEVMKPGSSVKVSCKASGYTFSWYWLEWVRQAPGHGLEWMGEIDPGTFTTHYNEKFKARVTFTADTSTSTAYMELSSLRSEDTAVYYCARFSHFSGSHYDYFDYWGQGTLVTVSS
VL: EIVMTQSPATLSVSPGERATLSCRASQHIGTNIHWYQQKPGQAPRLLIYYASESISGIPARFSGSGSGTEFTLTISSLQSEDFAVYYCQQSWSHPTTFGGGTKVEIK
B2: CL-2C mAb 11 (antibody, V domains shown)
VH: QVQLVQSGAEVMKPGSSVKVSCKASGYTFSWYWLEWVRQAPGHGLEWMGEIDPGTFTTHYNEKFKARVTFTADTSTSTAYMELSSLRSEDTAVYYCARFSHFSGSHYDYFDYWGQGTLVTVSS
VL: EIVMTQSPATLSVSPGERATLSCRASQSIGTNIHWYQQKPGQAPRLLIYHASESISGIPARFSGSGSGTEFTLTISSLQSEDFAVYYCQQSWSHPTTFGGGTKVEIK
B3: CL-2C mAb 5 (antibody, V domains shown)
VH: QVQLVQSGAEVMKPGSSVKVSCKASGYTFSWYWLEWVRQAPGHGLEWMGEIDPGTFTTNYNEKFKARVTFTADTSTSTAYMELSSLRSEDTAVYYCARFSHFSGSNYDYFDYWGQGTLVTVSS
VL: EIVMTQSPATLSVSPGERATLSCRASQHIGTNIHWYQQKPGQAPRLLIYYASESISGIPARFSGSGSGTEFTLTISSLQSEDFAVYYCQQSWSHPTTFGGGTKVEIK
B4: CL-2C mAb 19 (antibody, V domains shown)
VH: QVQLVQSGAEVMKPGSSVKVSCKASGYTFSWYHLEWVRQAPGHGLEWMGEIDPGTFTTNYNEKFKARVTFTADTSTSTAYMELSSLRSEDTAVYYCARFSHFSGHNYDYFDYWGQGTLVTVSS
VL: EIVMTQSPATLSVSPGERATLSCRASQSIGTNIHWYQQKPGQAPRLLIYHASESISGIPARFSGSGSGTEFTLTISSLQSEDFAVYYCQQSDSHPTTFGGGTKVEIK
B5: CL-2C mAb 18 (antibody, V domains shown)
VH: QVQLVQSGAEVMKPGSSVKVSCKASGYTFSWYHLEWVRQAPGHGLEWMGEIDPGTFTTNYNEKFKARVTFTADTSTSTAYMELSSLRSEDTAVYYCARFSHFSGSHYDYFDYWGQGTLVTVSS
VL: EIVMTQSPATLSVSPGERATLSCRASQSIGTNIHWYQQKPGQAPRLLIYHASESISGIPARFSGSGSGTEFTLTISSLQSEDFAVYYCQQSDSHPTTFGGGTKVEIK
B6: CL-2C mAb 12 (antibody, V domains shown)
VH: QVQLVQSGAEVMKPGSSVKVSCKASGYTFSWYHLEWVRQAPGHGLEWMGEIDPGTFTTNYNEKFKARVTFTADTSTSTAYMELSSLRSEDTAVYYCARFSHFSGSNHDYFDYWGQGTLVTVSS
VL: EIVMTQSPATLSVSPGERATLSCRASQSIGTNIHWYQQKPGQAPRLLIYHASESISGIPARFSGSGSGTEFTLTISSLQSEDFAVYYCQQSWSHPTTFGGGTKVEIK
B7: CL-2C mAb 17 (antibody, V domains shown)
VH: QVQLVQSGAEVMKPGSSVKVSCKASGYTFSWYHLEWVRQAPGHGLEWMGEIDPGTFTTNYNEKFKARVTFTADTSTSTAYMELSSLRSEDTAVYYCARFSHFSGSNHDYFDYWGQGTLVTVSS
VL: EIVMTQSPATLSVSPGERATLSCRASQSIGTNIHWYQQKPGQAPRLLIYHASESISGIPARFSGSGSGTEFTLTISSLQSEDFAVYYCQQSDSHPTTFGGGTKVEIK
B8: CL-2C mAb 16 (antibody, V domains shown)
VH: QVQLVQSGAEVMKPGSSVKVSCKASGYTFSWYWLEWVRQAPGHGLEWMGEIDPGTFTTHYNEKFKARVTFTADTSTSTAYMELSSLRSEDTAVYYCARFSHFSGSHYDYFDYWGQGTLVTVSS
VL: EIVMTQSPATLSVSPGERATLSCRASQSIGTNIHWYQQKPGQAPRLLIYHASESISGIPARFSGSGSGTEFTLTISSLQSEDFAVYYCQQSDSHPTTFGGGTKVEIK
B9: CL-2C mAb 6 (antibody, V domains shown)
VH: QVQLVQSGAEVMKPGSSVKVSCKASGYTFSWYWLEWVRQAPGHGLEWMGEIDPGTFTTHYNEKFKARVTFTADTSTSTAYMELSSLRSEDTAVYYCARFSHFSGSHYDYFDYWGQGTLVTVSS
VL: EIVMTQSPATLSVSPGERATLSCRASQSIGTNIHWYQQKPGQAPRLLIYHASESISGIPARFSGSGSGTEFTLTISSLQSEDFAVYYCHQSDSWPTTFGGGTKVEIK
B10: CL-2C mAb 14 (antibody, V domains shown)
VH: QVQLVQSGAEVMKPGSSVKVSCKASGYTFSWYHLEWVRQAPGHGLEWMGEIDPGTFTTNYNEKFKARVTFTADTSTSTAYMELSSLRSEDTAVYYCARFSHFSGHNYDYFDYWGQGTLVTVSS
VL: EIVMTQSPATLSVSPGERATLSCRASQSIGTNIHWYQQKPGQAPRLLIYHASESISGIPARFSGSGSGTEFTLTISSLQSEDFAVYYCQQSWSHPTTFGGGTKVEIK
B11: CL-2C mAb 26 (antibody, V domains shown)
VH: QVQLVQSGAEVMKPGSSVKVSCKASGYTFSWYWLEWVRQAPGHGLEWMGEIDPGTFTTHYNEKFKARVTFTADTSTSTAYMELSSLRSEDTAVYYCARFSHFSGSHYDYFDYWGQGTLVTVSS
VL: EIVMTQSPATLSVSPGERATLSCRASQSIGTNIHWYQQKPGQAPRLLIYHASESISGIPARFSGSGSGTEFTLTISSLQSEDFAVYYCQQSWSWPTTFGGGTKVEIK
B12: CL-2C mAb 9 (antibody, V domains shown)
VH: QVQLVQSGAEVMKPGSSVKVSCKASGYTFSWYHLEWVRQAPGHGLEWMGEIDPGTFTTNYNEKFKARVTFTADTSTSTAYMELSSLRSEDTAVYYCARFSHFSGHNYDYFDYWGQGTLVTVSS
VL: EIVMTQSPATLSVSPGERATLSCRASQSIGTNIHWYQQKPGQAPRLLIYHASESISGIPARFSGSGSGTEFTLTISSLQSEDFAVYYCHQSDSWPTTFGGGTKVEIK
B13: CL-2C mAb 10 (antibody, V domains shown)
VH: QVQLVQSGAEVMKPGSSVKVSCKASGYTFSWYWLEWVRQAPGHGLEWMGEIDPGTFTTNYNEKFKARVTFTADTSTSTAYMELSSLRSEDTAVYYCARFSHFSGSNYDYFDYWGQGTLVTVSS
VL: EIVMTQSPATLSVSPGERATLSCRASQSIGTNIHWYQQKPGQAPRLLIYHASESISGIPARFSGSGSGTEFTLTISSLQSEDFAVYYCHQSDSWPTTFGGGTKVEIK
B14: CL-2C mAb 7 (antibody, V domains shown)
VH: QVQLVQSGAEVMKPGSSVKVSCKASGYTFSWYHLEWVRQAPGHGLEWMGEIDPGTFTTNYNEKFKARVTFTADTSTSTAYMELSSLRSEDTAVYYCARFSHFSGSNHDYFDYWGQGTLVTVSS
VL: EIVMTQSPATLSVSPGERATLSCRASQSIGTNIHWYQQKPGQAPRLLIYHASESISGIPARFSGSGSGTEFTLTISSLQSEDFAVYYCHQSDSWPTTFGGGTKVEIK
B15: CL-2C mAb 13 (antibody, V domains shown)
VH: QVQLVQSGAEVMKPGSSVKVSCKASGYTFSWYHLEWVRQAPGHGLEWMGEIDPGTFTTNYNEKFKARVTFTADTSTSTAYMELSSLRSEDTAVYYCARFSHFSGSHYDYFDYWGQGTLVTVSS
VL: EIVMTQSPATLSVSPGERATLSCRASQSIGTNIHWYQQKPGQAPRLLIYHASESISGIPARFSGSGSGTEFTLTISSLQSEDFAVYYCQQSWSHPTTFGGGTKVEIK
B16: CL-2C mAb 4 (antibody, V domains shown)
VH: QVQLVQSGAEVMKPGSSVKVSCKASGYTFSWYHLEWVRQAPGHGLEWMGEIDPGTFTTNYNEKFKARVTFTADTSTSTAYMELSSLRSEDTAVYYCARFSHFSGHNYDYFDYWGQGTLVTVSS
VL: EIVMTQSPATLSVSPGERATLSCRASQHIGTNIHWYQQKPGQAPRLLIYYASESISGIPARFSGSGSGTEFTLTISSLQSEDFAVYYCQQSWSHPTTFGGGTKVEIK
B17: CL-2C mAb 3 (antibody, V domains shown)
VH: QVQLVQSGAEVMKPGSSVKVSCKASGYTFSWYHLEWVRQAPGHGLEWMGEIDPGTFTTNYNEKFKARVTFTADTSTSTAYMELSSLRSEDTAVYYCARFSHFSGSHYDYFDYWGQGTLVTVSS
VL: EIVMTQSPATLSVSPGERATLSCRASQHIGTNIHWYQQKPGQAPRLLIYYASESISGIPARFSGSGSGTEFTLTISSLQSEDFAVYYCQQSWSHPTTFGGGTKVEIK
B18: CL-2C mAb 8 (antibody, V domains shown)
VH: QVQLVQSGAEVMKPGSSVKVSCKASGYTFSWYHLEWVRQAPGHGLEWMGEIDPGTFTTNYNEKFKARVTFTADTSTSTAYMELSSLRSEDTAVYYCARFSHFSGSHYDYFDYWGQGTLVTVSS
VL: EIVMTQSPATLSVSPGERATLSCRASQSIGTNIHWYQQKPGQAPRLLIYHASESISGIPARFSGSGSGTEFTLTISSLQSEDFAVYYCHQSDSWPTTFGGGTKVEIK
B19: CL-2C mAb 15 (antibody, V domains shown)
VH: QVQLVQSGAEVMKPGSSVKVSCKASGYTFSWYWLEWVRQAPGHGLEWMGEIDPGTFTTNYNEKFKARVTFTADTSTSTAYMELSSLRSEDTAVYYCARFSHFSGSNYDYFDYWGQGTLVTVSS
VL: EIVMTQSPATLSVSPGERATLSCRASQSIGTNIHWYQQKPGQAPRLLIYHASESISGIPARFSGSGSGTEFTLTISSLQSEDFAVYYCQQSWSHPTTFGGGTKVEIK
B20: CL-2C mAb 20 (antibody, V domains shown)
VH: QVQLVQSGAEVMKPGSSVKVSCKASGYTFSWYWLEWVRQAPGHGLEWMGEIDPGTFTTNYNEKFKARVTFTADTSTSTAYMELSSLRSEDTAVYYCARFSHFSGSNYDYFDYWGQGTLVTVSS
VL: EIVMTQSPATLSVSPGERATLSCRASQSIGTNIHWYQQKPGQAPRLLIYHASESISGIPARFSGSGSGTEFTLTISSLQSEDFAVYYCQQSDSHPTTFGGGTKVEIK
B21: CL-2C mAb 2 (antibody, V domains shown)
VH: QVQLVQSGAEVMKPGSSVKVSCKASGYTFSWYHLEWVRQAPGHGLEWMGEIDPGTFTTNYNEKFKARVTFTADTSTSTAYMELSSLRSEDTAVYYCARFSHFSGSNHDYFDYWGQGTLVTVSS
VL: EIVMTQSPATLSVSPGERATLSCRASQHIGTNIHWYQQKPGQAPRLLIYYASESISGIPARFSGSGSGTEFTLTISSLQSEDFAVYYCQQSWSHPTTFGGGTKVEIK

In this assay the target is recombinant Motavizumab human IgE (rMota-hIgE) (human) (UniProt P01854). Nature of the assay: hIgE binding ELISA. On the technique in general: An ELISA detects its analyte on a solid surface through an enzyme-linked reagent.
recombinant Motavizumab human IgE (rMota-hIgE) (human), sequence (P01854 other isoform, or with tags, fused parts or gaps limits assumed, form in doubt): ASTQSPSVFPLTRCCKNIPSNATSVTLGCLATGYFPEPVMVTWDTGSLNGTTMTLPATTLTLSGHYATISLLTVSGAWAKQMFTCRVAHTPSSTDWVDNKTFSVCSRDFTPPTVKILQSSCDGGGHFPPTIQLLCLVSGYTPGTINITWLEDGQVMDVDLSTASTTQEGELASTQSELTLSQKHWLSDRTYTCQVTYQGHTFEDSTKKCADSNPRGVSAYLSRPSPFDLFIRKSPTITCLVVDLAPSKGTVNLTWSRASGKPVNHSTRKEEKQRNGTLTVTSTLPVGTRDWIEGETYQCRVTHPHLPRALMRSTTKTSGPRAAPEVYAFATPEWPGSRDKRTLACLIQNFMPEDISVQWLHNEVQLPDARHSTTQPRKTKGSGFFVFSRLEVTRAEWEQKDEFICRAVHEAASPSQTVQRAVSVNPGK
For B1, the Ratio OD450 pH 7.4/pH 6 came out at 6.94.
Regarding B2, the Ratio OD450 pH 7.4/pH 6 was determined as 5.9.
For B3 the value was 0.73; for B4, 1.04.
For B5 the value was 0.97; for B6, 1.54.
To B7 belongs 1.03; to B8, 2.24; to B9, 10.2.
Turning to B10, the Ratio OD450 pH 7.4/pH 6 amounted to 1.53.
For B11 the value was 44.6.
As to B12, the Ratio OD450 pH 7.4/pH 6 amounted to 1.45.
As to B13, the Ratio OD450 pH 7.4/pH 6 was determined as 2.77.
For B14 the value was 1.43; for B15, 1.28; for B16, 5.26.
To B17 belongs 6.44.
On to B18, for which the Ratio OD450 pH 7.4/pH 6 was found to be 1.12.
On to B19, for which the Ratio OD450 pH 7.4/pH 6 amounted to 4.07.
For B20 the value was 5.46; for B21, 7.11.
